Laboratory results: patent publication US20150203577A1 (Chugai, published 2015)

T1: mouse FcγRIII (mouse, UniProt P08508 31-215)
T1 construct: Extracellular domain with C-terminal His tag; also called mFcγRIII; mFcgRIII
T1 chain: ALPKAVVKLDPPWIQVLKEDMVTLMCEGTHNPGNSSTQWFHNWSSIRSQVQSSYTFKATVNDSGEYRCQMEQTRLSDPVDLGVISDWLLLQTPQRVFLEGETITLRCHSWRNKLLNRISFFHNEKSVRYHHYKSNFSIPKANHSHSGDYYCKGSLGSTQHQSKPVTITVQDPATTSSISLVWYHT

T2: mouse FcγRII (mouse, UniProt P08101 30-210)
T2 construct: Extracellular domain with C-terminal His tag; also called mFcγRII; mFcgRII
T2 sequence: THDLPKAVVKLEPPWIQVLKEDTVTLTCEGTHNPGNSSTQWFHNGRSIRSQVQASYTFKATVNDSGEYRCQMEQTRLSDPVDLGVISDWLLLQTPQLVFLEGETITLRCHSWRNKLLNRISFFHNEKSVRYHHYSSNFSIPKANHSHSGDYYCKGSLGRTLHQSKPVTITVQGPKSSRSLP


What was measured:
mouse FcγRIII [1] = molecular target: T1, mouse FcγRIII; assay: SPR (Biacore T200); KD of H237-mIgG1/MRAL-k0 / KD of variant
mouse FcγRII [2] = molecular target: T2, mouse FcγRII; assay: as above
mouse FcγRIII [3] = molecular target: T1, mouse FcγRIII; assay: SPR (Biacore T200); KD of H237-MB630/MRAL-k0 / KD of variant
mouse FcγRII [4] = molecular target: T2, mouse FcγRII; assay: as above

Row | Binder | relative mFcγRIII-binding activity (mIgG1 = 1) (mouse FcγRIII [1]) | relative mFcγRII-binding activity (mIgG1 = 1) (mouse FcγRII [2]) | Relative mFcγRIII-binding activity (MB630 = 1) (mouse FcγRIII [3]) | Relative mFcγRII-binding activity (MB630 = 1) (mouse FcγRII [4])
1 | MB818 (antibody, mouse IgG1, kappa, CH name; VH H237 + CH, L chain MRAL-k0; copies: 2 + 2) heavy: QVQLQESGPGLVKPSETLSLTCAVSGHSISHDHAWSWVRQPPGEGLEWIGFISYSGITNYNPSLQGRVTISRDNSKNTLYLQMNSLRAEDTAVYYCARSLARTTAMDYWGEGTLVTVSSAKTTPPSVYPLAPGSAAQTNSMVTLGCLVKGYFPEPVTVTWNSGSLSSGVHTFPAVLQSDLYTLSSSVTVPSSTWPSETVTCNVAHPASSTKVDKKIVPRDCGCKPCICEPNEVELVFIFPPKPKDVLTITLTPKVTCVVVDISKDDPEVQFSWFVDDVEVHTAQTQPREEQFNSTFRSVSELPIMHQDWLNGKEFKCRVMSAAFPAFIEKTISKTKGRPKAPQVYTIPPPKEQMAKDKVSLTCMITDFFPEDITVEWQWNGQPAENYKNTQPIMDTDGSYFVYSKLNVQKSNWEAGNTFTCSVLHEGLHNHHTEKSLSHSPGK light: not shown | 0.29 fold | 15.6 fold | 1.25 fold | 1.19 fold
2 | MB821 (antibody, mouse IgG1, kappa, CH name; VH H237 + CH, L chain MRAL-k0; copies: 2 + 2) heavy: QVQLQESGPGLVKPSETLSLTCAVSGHSISHDHAWSWVRQPPGEGLEWIGFISYSGITNYNPSLQGRVTISRDNSKNTLYLQMNSLRAEDTAVYYCARSLARTTAMDYWGEGTLVTVSSAKTTPPSVYPLAPGSAAQTNSMVTLGCLVKGYFPEPVTVTWNSGSLSSGVHTFPAVLQSDLYTLSSSVTVPSSTWPSETVTCNVAHPASSTKVDKKIVPRDCGCKPCICEPNEVELVFIFPPKPKDVLTITLTPKVTCVVVDISKDDPEVQFSWFVDDVEVHTAQTQPREEQFNSTFRSVSELPIMHQDWLNGKEFKCRVMSAAFPAPIERTISKTKGRPKAPQVYTIPPPKEQMAKDKVSLTCMITDFFPEDITVEWQWNGQPAENYKNTQPIMDTDGSYFVYSKLNVQKSNWEAGNTFTCSVLHEGLHNHHTEKSLSHSPGK light: not shown | 0.45 fold | 24.4 fold | 1.96 fold | 1.86 fold
3 | MB822 (antibody, mouse IgG1, kappa, CH name; VH H237 + CH, L chain MRAL-k0; copies: 2 + 2) heavy: QVQLQESGPGLVKPSETLSLTCAVSGHSISHDHAWSWVRQPPGEGLEWIGFISYSGITNYNPSLQGRVTISRDNSKNTLYLQMNSLRAEDTAVYYCARSLARTTAMDYWGEGTLVTVSSAKTTPPSVYPLAPGSAAQTNSMVTLGCLVKGYFPEPVTVTWNSGSLSSGVHTFPAVLQSDLYTLSSSVTVPSSTWPSETVTCNVAHPASSTKVDKKIVPRDCGCKPCICEPNEVELVFIFPPKPKDVLTITLTPKVTCVVVDISKDDPEVQFSWFVDDVEVHTAQTQPREEQFNSTFRSVSELPIMHQDWLNGKEFKCRVNSDGFPAPIEKTISKTKGRPKAPQVYTIPPPKEQMAKDKVSLTCMITDFFPEDITVEWQWNGQPAENYKNTQPIMDTDGSYFVYSKLNVQKSNWEAGNTFTCSVLHEGLHNHHTEKSLSHSPGK light: not shown | 0.93 fold | 43.8 fold | 4.02 fold | 3.33 fold
4 | MB824 (antibody, mouse IgG1, kappa, CH name; VH H237 + CH, L chain MRAL-k0; copies: 2 + 2) heavy: QVQLQESGPGLVKPSETLSLTCAVSGHSISHDHAWSWVRQPPGEGLEWIGFISYSGITNYNPSLQGRVTISRDNSKNTLYLQMNSLRAEDTAVYYCARSLARTTAMDYWGEGTLVTVSSAKTTPPSVYPLAPGSAAQTNSMVTLGCLVKGYFPEPVTVTWNSGSLSSGVHTFPAVLQSDLYTLSSSVTVPSSTWPSETVTCNVAHPASSTKVDKKIVPRDCGCKPCICEPNEVELVFIFPPKPKDVLTITLTPKVTCVVVDISKDDPEVQFSWFVDDVEVHTAQTQPREEQFNSTFRSVSELPIMHQDWLNGKEFKCRVNSDAFPAYIEKTISKTKGRPKAPQVYTIPPPKEQMAKDKVSLTCMITDFFPEDITVEWQWNGQPAENYKNTQPIMDTDGSYFVYSKLNVQKSNWEAGNTFTCSVLHEGLHNHHTEKSLSHSPGK light: not shown | 0.56 fold | 28 fold | 2.45 fold | 2.13 fold
5 | MB819 (antibody, mouse IgG1, kappa, CH name; VH H237 + CH, L chain MRAL-k0; copies: 2 + 2) heavy: QVQLQESGPGLVKPSETLSLTCAVSGHSISHDHAWSWVRQPPGEGLEWIGFISYSGITNYNPSLQGRVTISRDNSKNTLYLQMNSLRAEDTAVYYCARSLARTTAMDYWGEGTLVTVSSAKTTPPSVYPLAPGSAAQTNSMVTLGCLVKGYFPEPVTVTWNSGSLSSGVHTFPAVLQSDLYTLSSSVTVPSSTWPSETVTCNVAHPASSTKVDKKIVPRDCGCKPCICEPNEVELVFIFPPKPKDVLTITLTPKVTCVVVDISKDDPEVQFSWFVDDVEVHTAQTQPREEQFNSTFRSVSELPIMHQDWLNGKEFKCRVMSAAFPAYIEKTISKTKGRPKAPQVYTIPPPKEQMAKDKVSLTCMITDFFPEDITVEWQWNGQPAENYKNTQPIMDTDGSYFVYSKLNVQKSNWEAGNTFTCSVLHEGLHNHHTEKSLSHSPGK light: not shown | 0.32 fold | 18.1 fold | 1.4 fold | 1.38 fold
6 | MB823 (antibody, mouse IgG1, kappa, CH name; VH H237 + CH, L chain MRAL-k0; copies: 2 + 2) heavy: QVQLQESGPGLVKPSETLSLTCAVSGHSISHDHAWSWVRQPPGEGLEWIGFISYSGITNYNPSLQGRVTISRDNSKNTLYLQMNSLRAEDTAVYYCARSLARTTAMDYWGEGTLVTVSSAKTTPPSVYPLAPGSAAQTNSMVTLGCLVKGYFPEPVTVTWNSGSLSSGVHTFPAVLQSDLYTLSSSVTVPSSTWPSETVTCNVAHPASSTKVDKKIVPRDCGCKPCICEPNEVELVFIFPPKPKDVLTITLTPKVTCVVVDISKDDPEVQFSWFVDDVEVHTAQTQPREEQFNSTFRSVSELPIMHQDWLNGKEFKCRVNSDAFPAFIEKTISKTKGRPKAPQVYTIPPPKEQMAKDKVSLTCMITDFFPEDITVEWQWNGQPAENYKNTQPIMDTDGSYFVYSKLNVQKSNWEAGNTFTCSVLHEGLHNHHTEKSLSHSPGK light: not shown | 0.49 fold | 25 fold | 2.13 fold | 1.9 fold
7 | MB825 (antibody, mouse IgG1, kappa, CH name; VH H237 + CH, L chain MRAL-k0; copies: 2 + 2) heavy: QVQLQESGPGLVKPSETLSLTCAVSGHSISHDHAWSWVRQPPGEGLEWIGFISYSGITNYNPSLQGRVTISRDNSKNTLYLQMNSLRAEDTAVYYCARSLARTTAMDYWGEGTLVTVSSAKTTPPSVYPLAPGSAAQTNSMVTLGCLVKGYFPEPVTVTWNSGSLSSGVHTFPAVLQSDLYTLSSSVTVPSSTWPSETVTCNVAHPASSTKVDKKIVPRDCGCKPCICEPNEVELVFIFPPKPKDVLTITLTPKVTCVVVDISKDDPEVQFSWFVDDVEVHTAQTQPREEQFNSTFRSVSELPIMHQDWLNGKEFKCRVNSDAFPAPIYKTISKTKGRPKAPQVYTIPPPKEQMAKDKVSLTCMITDFFPEDITVEWQWNGQPAENYKNTQPIMDTDGSYFVYSKLNVQKSNWEAGNTFTCSVLHEGLHNHHTEKSLSHSPGK light: not shown | 0.5 fold | 28.4 fold | 2.17 fold | 2.16 fold
8 | MB826 (antibody, mouse IgG1, kappa, CH name; VH H237 + CH, L chain MRAL-k0; copies: 2 + 2) heavy: QVQLQESGPGLVKPSETLSLTCAVSGHSISHDHAWSWVRQPPGEGLEWIGFISYSGITNYNPSLQGRVTISRDNSKNTLYLQMNSLRAEDTAVYYCARSLARTTAMDYWGEGTLVTVSSAKTTPPSVYPLAPGSAAQTNSMVTLGCLVKGYFPEPVTVTWNSGSLSSGVHTFPAVLQSDLYTLSSSVTVPSSTWPSETVTCNVAHPASSTKVDKKIVPRDCGCKPCICEPNEVELVFIFPPKPKDVLTITLTPKVTCVVVDISKDDPEVQFSWFVDDVEVHTAQTQPREEQFNSTFRSVSELPIMHQDWLNGKEFKCRVNSAGFPAFIEKTISKTKGRPKAPQVYTIPPPKEQMAKDKVSLTCMITDFFPEDITVEWQWNGQPAENYKNTQPIMDTDGSYFVYSKLNVQKSNWEAGNTFTCSVLHEGLHNHHTEKSLSHSPGK light: not shown | 0.34 fold | 18.5 fold | 1.48 fold | 1.41 fold
9 | MB820 (antibody, mouse IgG1, kappa, CH name; VH H237 + CH, L chain MRAL-k0; copies: 2 + 2) heavy: QVQLQESGPGLVKPSETLSLTCAVSGHSISHDHAWSWVRQPPGEGLEWIGFISYSGITNYNPSLQGRVTISRDNSKNTLYLQMNSLRAEDTAVYYCARSLARTTAMDYWGEGTLVTVSSAKTTPPSVYPLAPGSAAQTNSMVTLGCLVKGYFPEPVTVTWNSGSLSSGVHTFPAVLQSDLYTLSSSVTVPSSTWPSETVTCNVAHPASSTKVDKKIVPRDCGCKPCICEPNEVELVFIFPPKPKDVLTITLTPKVTCVVVDISKDDPEVQFSWFVDDVEVHTAQTQPREEQFNSTFRSVSELPIMHQDWLNGKEFKCRVMSAAFPAPIYKTISKTKGRPKAPQVYTIPPPKEQMAKDKVSLTCMITDFFPEDITVEWQWNGQPAENYKNTQPIMDTDGSYFVYSKLNVQKSNWEAGNTFTCSVLHEGLHNHHTEKSLSHSPGK light: not shown | 0.33 fold | 19.5 fold | 1.43 fold | 1.49 fold
